Source: the supplement of paper PMC9170038

Test system: MS2 coat protein
Assay: apparent KD of MS2 coat protein; designed switch direction (-1 OFF switch, 1 ON switch): 1; higher = weaker reporter binding
In short: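 SNAP-549-labelled MS2 coat protein was titrated, doubling from 0.7 or 1.5 nM to 3 µM, over designed RNA switches transcribed on Illumina chips by stalled E. coli RNA polymerase. Runs were done without input, with 200 uM small-molecule ligand, or with an oligonucleotide input. Apparent KD is the per-design median over clusters of curve-fitted normalised fluorescence.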

[1] = input ligand: microRNA oligo, concentration not stated
[2] = Eterna round: R95, input ligand: FMN 200 uM
[3] = Eterna round: R95, input ligand: microRNA oligo, concentration not stated
[4] = Eterna round: R95, input ligand: none

Row | Sequence | apparent KD of MS2 coat protein (input ligand: FMN 200 uM) | apparent KD of MS2 coat protein [1] | apparent KD of MS2 coat protein (input ligand: none) | apparent KD of MS2 coat protein [2] | apparent KD of MS2 coat protein [3] | apparent KD of MS2 coat protein [4]
1 | UUAAUAAUGAUAGGAUAUACAUGAGGAAUCCUCGUAGAAGGAUCAUGACAUGAGGAUCACCCAUGUAACGCUCAGAAGAGCGUA [Mat - Same State NG 1 - JL mod - D43] (Eterna round: R96, puzzle: Same State NG 1) | 738 nM | 30.9 nM | 516 nM | – | – | –
2 | UACUGAGUCGUAGGAUAUGUAGGAUAUGGCGAGAGCUAAGCUUGGAAGUCACUUCUGCCAGAAGGACAGAAGGACGACUCUCUC [pwkr ssNG2 2FMN + F9.14] (Eterna round: R96, puzzle: Same State NG 2) | 705 nM | 237 nM | 55.5 nM | – | – | –
3 | GGUCCAGCCUGAGCUGGACAAAAGCAUGUACAUGAGGAUCACCCAUGUCAUGUACAAGCUUUUUGCUCGUCUUGAAA [JL mod - D87 - 8] (puzzle: Sensor for hsa-mir-208a) | – | – | – | 359 nM | 16.5 nM | 867 nM
4 | AGUCCAGCCUGAGCUGGACAAAAGCAUGUACAUGAGGAUCACCCAUGUCAUGUACAAGCUUUAUGCUCGUCUUAAAA [Mat - hsa-mir-208a - Mod of JL - D15] (puzzle: Sensor for hsa-mir-208a) | – | – | – | 224 nM | 15.6 nM | 298 nM
5 | GAAAAGGCAACGCAGGAUAUGAAAGGUGAAACAUGAGGAUCACCCAUGUGCUACCUUCCGAUAAAUCAGAAGGGCGACGCCAAAA [Leceave] (puzzle: Same State 2) | – | – | – | 15.4 nM | 15.6 nM | 19.4 nM
6 | GGCGAACAGGCUAACAUGAGGAUCACCCAUGUGGACUCAUGUUAGGAUAUCGGGAAGGAGGAAACCGAGAAGGGACGGUGAGCC [AK SSNG3-V2-47] (Eterna round: R96, puzzle: Same State NG 3) | 18.8 nM | 9.25 nM | 82.3 nM | – | – | –
7 | GGAGGACAUGAGGAUCACCCAUGUGGAUGAACGCUAGGAUAUGCGUGCAGGAAGAGUGGAGCAGAAGGAGUGGGUU [JR_SS1_Sub046] (puzzle: Same State 1) | – | – | – | – | 21.7 nM | –
8 | GAUUCACAUGAGGAUCACCCAUGUCGUUAUAUGGGAGGAUAUACGUGGACCGUAGUCCGCGUAGAAGGCCUAAUUG [JL-ss1-3.25 janelle mod] (puzzle: Same State 1) | – | – | – | – | 303 nM | –
9 | AACUGUUUCUGAGGAUAUCAGUAGUAUGCCAAUUGAGAAGGCAGUACAUGAGGAUCACCCAUGUUGUGGUUUGAUAGAAUGAUA [JR_SSNG1_Sub003] (Eterna round: R96, puzzle: Same State NG 1) | 182 nM | 133 nM | 214 nM | – | – | –
10 | GGCAGGUGCAGGCUUGCUUGCACCUGGAGACAUGAGGAUCACCCAUGUUUGGGACAAGCUUUGCUCUUCGUCUUUUC [JL ViennaUCT Isusreraar mod 6] (puzzle: Sensor for hsa-mir-208a) | – | – | – | 74.1 nM | 105 nM | 107 nM
11 | GCAAUGGCGGUAGGAUAUCUAGGAUAUGGGAAAGACUAAGUCUGUAGGUCACCUAACCCAGAAGGAGAGAAGGACCCUGUAAGG [pwkr ssNG2 2FMN + F9.24] (Eterna round: R96, puzzle: Same State NG 2) | 43.2 nM | 9.31 nM | 30.8 nM | – | – | –
12 | AUUUUUUAUGCAGGAUAUGAUUAACAUGAGGAUCACCCAUGUGGUGUUGUGAGUAAGGAGAGUGAUCAGAAGGGCAUUUUUUUU [JMF's solution 68] (Eterna round: R96, puzzle: Same State NG 2) | 579 nM | 318 nM | 401 nM | – | – | –
13 | UAUUUAAUCGUAGGAUAUAGAGUGAAAUUUGGACUAGAAGGACGUAACAUGAGGAUCACCCAUGUGGUAAGUGGGACACAGUGU [JR_SSNG1_Sub038] (Eterna round: R96, puzzle: Same State NG 1) | 150 nM | 66.8 nM | 90.5 nM | – | – | –
14 | GUAGCAUGCAGGCAGGAUAUUCAUAUUAAAACAUGAGGAUCACCCAUGUAGGCCGAAAGGCCUUGGGAGAAGGGCCACAUGCUAC [Xeonanis - 18] (puzzle: Same State 2) | – | – | – | 34.3 nM | 453 nM | 1020 nM
15 | AUUUAACAAGCUUUUUGCUCGUCUUAUAAACAUGAGGAUCACCCAUGUAAUAGCGUGAGAGUAAAUAAUUUAAUAAU [JMF 98] (puzzle: Sensor for hsa-mir-208a) | – | – | – | 12.9 nM | 53.2 nM | –
16 | ACAGAGUGAAGACAGGAUAUUCGCGAUGGCACAUGAGGAUCACCCAUGUUUUGAGCACAUAAACAGAAGAAGGGUUAAAACUCAG [Zadier] (puzzle: Same State 2) | – | – | – | 15 nM | 119 nM | 362 nM

Row | Sequence | apparent KD of MS2 coat protein (input ligand: FMN 200 uM) | apparent KD of MS2 coat protein [1] | apparent KD of MS2 coat protein (input ligand: none) | apparent KD of MS2 coat protein [2] | apparent KD of MS2 coat protein [3] | apparent KD of MS2 coat protein [4]
17 | AGUCCUGAAUAAAUUAAACAGAGACAUGUACAUGAGGAUCACCCAUGUCAUGUGCAAGUUUUUUGCUCGUCAUAUAA [Sensorship 17 - Jieux - Sensor for hsa-mir-208a] (puzzle: Sensor for hsa-mir-208a) | – | – | – | 13.7 nM | 10.7 nM | 14.9 nM
18 | GCUCGACGUGUUGUCUACAUGAGGAUCACCCAUGUAGGUGCGGAGGAUAUCUACGUGCUUUAUGUAGAGAAGGUCGUGUCGAGC [SameState NG3 #87] (Eterna round: R96, puzzle: Same State NG 3) | 32.4 nM | 55.3 nM | 66.4 nM | – | – | –
19 | AGCCUGCCGCAAGGAUAUGAAGCUUUCGCUCCGUCAGAAGGUGCACAUGAGGAUCACCCAUGUAUGCAGGCCAAGAAAUAAAAC [Inbilerate] (Eterna round: R96, puzzle: Same State NG 1) | 20.1 nM | 33.9 nM | 52.9 nM | – | – | –
20 | UUGAAGAAUUAAGGAUAUUGAAUACAUAUGUUUAACAUGAGGAUCACCCAUGUGGGUUGCGGUAUCGAGAAGGUAAAAUAAUAG [Mat - Same State NG 2 - JL mod - D4] (Eterna round: R96, puzzle: Same State NG 2) | 118 nM | 91.8 nM | 110 nM | – | – | –
21 | AGUGAACAUGAGGAUCACCCAUGUGAGAGAAGUGUAGGAUAUGUGAGGAGCAGAGGAGGGACAGAAGGACAUGGAG [JR_SS!_Sub074] (puzzle: Same State 1) | – | – | – | 32.1 nM | 38 nM | 51.8 nM
22 | AGGGAGGAAGCUGAGGAUAUCGUAGGGAGGACAUGAGGAUCACCCAUGUGUAUAGAAUUGGAGGACGAGAAGGCAGAGGAGUGGG [JR_SS2_Sub051] (puzzle: Same State 2) | – | – | – | 56.6 nM | 58.5 nM | 58.2 nM
23 | AUUAAUUAAUUAAUACAUGAGGAUCACCCAUGUAAUAAGAUCAAGGAUAUCAGCUCGAAUAGAGCUGAGAAGGUGAUCACAUGU [SSNG3/17-B1] (Eterna round: R96, puzzle: Same State NG 3) | – | 337 nM | – | – | – | –
24 | UUACAGUGCGGGUAGGAUAUGUAGGGUGGUACAUGAGGAUCACCCAUGUAUCCACCCUUCGACCGGCAGAAGGGCCUGUCACUAC [Atarzale] (Eterna round: R96, puzzle: Same State 2) | 14 nM | 12.1 nM | 19.8 nM | – | – | –
25 | ACAUGAGGAUCACCCAUGUAUUUAUAUGAAUCUUAAGUUACGUAGGAUAUCGUCUAUACUAUCAACGAGAAGGACGAACUCAAA [JR_SSNG3_Sub069] (Eterna round: R96, puzzle: Same State NG 3) | 9.51 nM | 15.3 nM | 17.4 nM | – | – | –
26 | GGAUCAUGACGAGGAUAUGGUACAUGAGGAUCACCCAUGUAUGUACCACGACGGAAACGUCGAAUCCAGAAGGCGUCAUGAUCG [Mat - Same State NG 2 - JL mod - D39] (Eterna round: R96, puzzle: Same State NG 2) | 25.3 nM | 70.1 nM | 120 nM | – | – | –
27 | AUUAUUUCAUGAGGAUAUGGCACCUUAUUGGUGCCAGAAGGCAUGUCUAUUGACAUGAGGAUCACCCAUGUAUUAAAUUAUAUA [Eli NG1ss - 89] (Eterna round: R96, puzzle: Same State NG 1) | – | 387 nM | – | – | – | –
28 | CACCAGAGAGCAGGAUAUGGGCCACGGCCUAAGGGCUGUGAACUCACAUGAGGAUCACCCAUGUCCCAGAAGGGCUCCUGGCUA [Getiised] (Eterna round: R96, puzzle: Same State NG 2) | 98.3 nM | 602 nM | 842 nM | – | – | –
29 | GUAUCUACAGGUUGCGAUGCUCGUCUGAUACAUGAGGAUCACCCAUGUUAUAGCCCUGUGCUUGCGCAGGGCUGAUU [Sensor for hsa-mir-208a ( MOD of Tearor v.2 )] (Eterna round: R96, puzzle: Sensor for hsa-mir-208a) | 105 nM | 26.7 nM | 84.6 nM | – | – | –
30 | GUGGUCAGACAUGAGGAUCACCCAUGUGGAAUAAAUAAGGUCAAGGAUAUUGAAUAUAGGAUAUACAAGAAGGUGAGGUUGGUG (Eterna round: R96, puzzle: Same State NG 3) | 140 nM | 94.9 nM | 115 nM | – | – | –
31 | GCUCGAUGAAUGUCCUACAUGAGGAUCACCCAUGUUCGUGGGCAGGAUAUUUACAUGCAGAGUGUAGAGAAGGGCCCAUCGAGC [SameState NG3 #63] (Eterna round: R96, puzzle: Same State NG 3) | 43.4 nM | 63.7 nM | 85.1 nM | – | – | –
